Laboratory results as given in patent publication US12269859B2, “Synthetic immune receptors and methods of use thereof” (Angeles Therapeutics, Inc., priority 2016, dated 2025).

B1: 10492 (protein)
chain: MALPVTALLLPLALLLHAARPDVVMTQSPSSLSASVGDRVTITCRASQDISKYLNWYQQKPGKAPKLLIYHTSRLHSGVPSRFSGSGSGTDFTLTISSLQPEDFATYYCQQGNTLPYTFGGGTKVEIKLEDLKNVFPPEVAVFCPSEAEISHTQKATLVCLATGFYPDHVELSWWVNGKEVHSGVSTDPQPLKEQPALNDSRYCLSSRLRVSATFWQNPRNHFRCQVQFYGLSENDEWTQDRAKPVTQIVSAEAWGRADCGFTSESYQQGVLSATILYEILLGKATLYAVLVSALVLMAMVKRKDSRGRAKRSGSGATNFSLLKQAGDVEENPGPTSMDWIWRILFLVGAATGAHSFEQVQLQESGPGLVKPSQTLSLTCTVSGVSLPDYGVSWIRQPPGKGLEWIGVIWGSETTYYNSALKSRVLISVDTSKNQVSLKLSSVTAADTAVYYCARHYYYGGSYAMDYWGQGTTVTVSSTRIQNPDPAVYQLRDCKSSDKSVCLFTDFDSQTNVSQSKDSDVYITDKTVLDMRSMDFKSNSAVAWSNKSDFACANAFNNSIIPEDTFFPSPESSCDVKLVEKSFETDTNLNFQNLSVIGFRILLLKVAGFNLLMTLRLWSS
B2: 10493 (protein)
chain: MALPVTALLLPLALLLHAARPDVVMTQSPSSLSASVGDRVTITCRASQDISKYLNWYQQKPGKAPKLLIYHTSRLHSGVPSRFSGSGSGTDFTLTISSLQPEDFATYYCQQGNTLPYTFGGGTKVEIKLEDLKNVFPPEVAVFEPSEAEISHTQKATLVCLATGFYPDHVELSWWVNGKEVHSGVSTCPQPLKEQPALNDSRYCLSSRLRVSATFWQNPRNHFRCQVQFYGLSENDEWTQDRAKPVTQIVSAEAWGRADCGFTSESYQQGVLSATILYEILLGKATLYAVLVSALVLMAMVKRKDSRGRAKRSGSGATNFSLLKQAGDVEENPGPTSMDWIWRILFLVGAATGAHSFEQVQLQESGPGLVKPSQTLSLTCTVSGVSLPDYGVSWIRQPPGKGLEWIGVIWGSETTYYNSALKSRVLISVDTSKNQVSLKLSSVTAADTAVYYCARHYYYGGSYAMDYWGQGTTVTVSSTRIQNPDPAVYQLRDSKSSDKSVCLFTDFDSQTNVSQSKDSDVYICDKTVLDMRSMDFKSNSAVAWSNKSDFACANAFNNSIIPEDTFFPSPESSCDVKLVEKSFETDTNLNFQNLSVIGFRILLLKVAGFNLLMTLRLWSS
B3: 10494 (protein)
chain: MALPVTALLLPLALLLHAARPDVVMTQSPSSLSASVGDRVTITCRASQDISKYLNWYQQKPGKAPKLLIYHTSRLHSGVPSRFSGSGSGTDFTLTISSLQPEDFATYYCQQGNTLPYTFGGGTKVEIKLEDLKNVFPPEVAVFEPSEAEISHTQKATLVCLATGFYPDHVELSWWVNGKEVHSGVSTDPQPLKEQPALNDSRYCLCSRLRVSATFWQNPRNHFRCQVQFYGLSENDEWTQDRAKPVTQIVSAEAWGRADCGFTSESYQQGVLSATILYEILLGKATLYAVLVSALVLMAMVKRKDSRGRAKRSGSGATNFSLLKQAGDVEENPGPTSMDWIWRILFLVGAATGAHSFEQVQLQESGPGLVKPSQTLSLTCTVSGVSLPDYGVSWIRQPPGKGLEWIGVIWGSETTYYNSALKSRVLISVDTSKNQVSLKLSSVTAADTAVYYCARHYYYGGSYAMDYWGQGTTVTVSSTRIQNPDPAVYQLRDSKSSDKSVCLFTDFDSQTNVSQSKDSDVYICDKTVLDMRSMDFKSNSAVAWSNKSDFACANAFNNSIIPEDTFFPSPESSCDVKLVEKSFETDTNLNFQNLSVIGFRILLLKVAGFNLLMTLRLWSS
B4: 10495 (protein)
chain: MALPVTALLLPLALLLHAARPDVVMTQSPSSLSASVGDRVTITCRASQDISKYLNWYQQKPGKAPKLLIYHTSRLHSGVPSRFSGSGSGTDFTLTISSLQPEDFATYYCQQGNTLPYTFGGGTKVEIKLEDLKNVFPPEVAVFEPCEAEISHTQKATLVCLATGFYPDHVELSWWVNGKEVHSGVSTDPQPLKEQPALNDSRYCLSSRLRVSATFWQNPRNHFRCQVQFYGLSENDEWTQDRAKPVTQIVSAEAWGRADCGFTSESYQQGVLSATILYEILLGKATLYAVLVSALVLMAMVKRKDSRGRAKRSGSGATNFSLLKQAGDVEENPGPTSMDWIWRILFLVGAATGAHSFEQVQLQESGPGLVKPSQTLSLTCTVSGVSLPDYGVSWIRQPPGKGLEWIGVIWGSETTYYNSALKSRVLISVDTSKNQVSLKLSSVTAADTAVYYCARHYYYGGSYAMDYWGQGTTVTVSSTRIQNPDPAVCQLRDSKSSDKSVCLFTDFDSQTNVSQSKDSDVYITDKTVLDMRSMDFKSNSAVAWSNKSDFACANAFNNSIIPEDTFFPSPESSCDVKLVEKSFETDTNLNFQNLSVIGFRILLLKVAGFNLLMTLRLWSS
B5: 11245 (protein)
chain: MALPVTALLLPLALLLHAARPDIQMTQSPSSLSASVGDRVTITCKASDHINNWLAWYQQKPGQAPKLLIYGATTLETGVPSRFSGSGSGTDYTLTISSLQPEDFATYYCQQSWNTPWTFGQGTKLEIKRLEDLKNVFPPEVAVFEPSKAEIAHTQKATLVCLATGFYPDHVELSWWVNGKEVHSGVCTDPQPLKEQPALNDSRYCLSSRLRVSATFWQNPRNHFRCQVQFYGLSENDEWTQDRAKPVTQIVSAEAWGRADCGITSASYHQGVLSATILYEILLGKATLYAVLVSALVLMAMVKRKDSRGRAKRSGSGATNFSLLKQAGDVEENPGPTSMDWIWRILFLVGAATGAHSFEQVQLQQPGAELVKPGASVKMSCKASGYAFSSYWINWMKQKPGQGLEWIGQIYPGDGDTNYNGKFKGRATLTADTSSSTAYMQLSSLTSEDSAVYFCARSITTVVGCAMDYWGQGTSVTVSSTRIQNPDPAVYQLRDSKSSDKSVCLFTDFDSQTNVSQSKDSDVYITDKCVLDMRSMDFKSNSAVAWSNKSDFACANAFNNSIIPEDTFFPSSDVPCDVKLVEKSFETDTNLNFQNLSVIGFRILLLKVAGFNLLMTLRLWSSRAKRSGSGVKQTLNFDLLKLAGDVESNPGPSRGHMTEYKPTVRLATRDDVPRAVRTLAAAFADYPATRHTVDPDRHIERVTELQELFLTRVGLDIGKVWVADDGAAVAVWTTPESVEAGAVFAEIGPRMAELSGSRLAAQQQMEGLLAPHRPKEPAWFLATVGVSPDHQGKGLGSAVVLPGVEAAERAGVPAFLETSAPRNLPFYERLGFTVTADVEVPEGPRTWCMTRKPGA
B6: 11240 (protein)
chain: MALPVTALLLPLALLLHAARPDIVMTQSPATLSLSPGERATLSCRSSKSLQNVNGNTYLYWFQQKPGQSPQLLIYRMSNLNSGVPDRFSGSGSGTEFTLTISSLEPEDFAVYYCMQHLEYPITFGAGTKLEIKLEEQKLISEEDLGSGEDLKNVFPPEVAVFEPSKAEIAHTQKATLVCLATGFYPDHVELSWWVNGKEVHSGVCTDPQPLKEQPALNDSRYCLSSRLRVSATFWQNPRNHFRCQVQFYGLSENDEWTQDRAKPVTQIVSAEAWGRADCGITSASYHQGVLSATILYEILLGKATLYAVLVSALVLMAMVKRKDSRGRAKRSGSGATNFSLLKQAGDVEENPGPTSMDWIWRILFLVGAATGAHSFEEVQLVESGGGLVKPGGSLKLSCAASGYTFTSYVMHWVRQAPGKGLEWIGYINPYNDGTKYNEKFQGRVTISSDKSISTAYMELSSLRSEDTAMYYCARGTYYYGTRVFDYWGQGTLVTVSSTREQKLISEEDLGSGIQNPDPAVYQLRDSKSSDKSVCLFTDFDSQTNVSQSKDSDVYITDKCVLDMRSMDFKSNSAVAWSNKSDFACANAFNNSIIPEDTFFPSSDVPCDVKLVEKSFETDTNLNFQNLSVIGFRILLLKVAGFNLLMTLRLWSSRAKRSGSGVKQTLNFDLLKLAGDVESNPGPSRGHMTEYKPTVRLATRDDVPRAVRTLAAAFADYPATRHTVDPDRHIERVTELQELFLTRVGLDIGKVWVADDGAAVAVWTTPESVEAGAVFAEIGPRMAELSGSRLAAQQQMEGLLAPHRPKEPAWFLATVGVSPDHQGKGLGSAVVLPGVEAAERAGVPAFLETSAPRNLPFYERLGFTVTADVEVPEGPRTWCMTRKPGA

Columns and labels:
[1] = FACS detection of CARs and SIRs by Myc and Protein L staining (cell surface expression); assay type: cell-based, human; settings: staining with APC-conjugated Protein-L, Jurkat-NFAT-GFP cells
Protocol: FACS analysis. Mouse Anti-Human c-Myc APC-conjugated Monoclonal Antibody (Catalog #IC3696A) was from R&D Systems (Minneapolis, MN). Biotinylated protein L was purchased from GeneScript (Piscataway, NJ), reconstituted in phosphate buffered saline (PBS) at 1 mg/ml and stored at 4° C. Streptavidin-APC (SA1005) was purchased from ThermoFisher Scientific.
For detection of CARs and SIRs using Myc staining, 1×10^6 cells were harvested and washed three times with 3 ml of ice-cold 1×PBS containing 4% bovine serum albumin (BSA) wash buffer. After wash, cells were resuspended in 0.1 ml of the ice-cold wash buffer containing 10 μl of APC-conjugated Myc antibody and incubated in dark for 1 hour followed by two washings with ice cold wash buffer.
For detection of CARs and SIRs using Protein L staining, 1×10^6 cells were harvested and washed three times with 3 ml of ice-cold 1×PBS containing 4% bovine serum albumin (BSA) wash buffer. After wash, cells were resuspended in 0.1 ml of the ice-cold wash buffer containing 1 μg of protein L at 4° C. for 1 hour. Cells were washed three times with ice-cold wash buffer, and then incubated (in the dark) with 10 μl of APC-conjugated streptavidin in 0.1 ml of the wash buffer for 30 minutes followed by two washings with ice cold wash buffer. FACS was done using FACSVerse analyzer from BD Biosciences.

RAJI cells = assay: Jurkat NFAT-GFP assay, coculture with RAJI cells; assay type: cell-based, human
Protocol: (B) Induction of NFAT promoter driven GFP expression. The control vector- and SIR-expressing Jurkat-NFAT-GFP cocultured for 4-24 hours with the target antigen-expressing cell line (described above) and their ability to bind to the target antigen is assayed by measuring induction of GFP expression using Flow Cytometry. Cellular supernatant is collected and assayed for the induction of cytokines (e.g., IL2).
Jurkat NFAT-GFP Assay For Synthetic Immune Receptors. The Jurkat-NFAT-GFP cells are engineered in such a way that the IL-2 promoter, which carries NFAT binding sites, is cloned upstream of the GFP gene. These cells have been used to study signaling via TCR and CAR. The different SIRs were stably expressed in Jurkat NFAT-GFP cells by lentiviral mediated gene transfer, followed by selection with puromycin. The SIR-expressing Jurkat-NFAT-GFP cells were cocultured with the target cells at E:T ratio of approximately 1:2 for approximately 4 hours to 18 hours. When the interaction between SIRs and their target antigen results in activation of the NFAT pathway, GFP expression is induced.
Induction of GFP expression by coculturing of Jurkat-NFAT-GFP cells expressing different SIR constructs and the different target cells was studied essentially as described previously (Wu, Roybal, Puchner, Onuffer, & Lim, 2015). GFP expression was monitored by FACS analysis. […] In panel B, Jurkat cells expressing SIR targeting CDH6 (Clone ID: 051716-J05), CD276 (Clone ID: 050516-Q06) and Her2/neu (Clone ID: 050516-I03) were incubated with SKOV3 (top) and […] (middle and bottom) cells, respectively. […] The Jurkat-NFAT-GFP cells were engineered to express different SIRs targeting other antigens and the experiment repeated upon coculture with the target cells expressing their respective target antigen. The Jurkat-NFAT-GFP (parental) cells were used as control. […] The names of different SIRs, their SEQ ID NOs, component antigen binding domains and TCR chains can be determined by reference to Tables 7A-7H. A SIR is considered positive in the assay in case the SIR expressing Jurkat-NFAT-GFP cells show greater % GFP positive cells when cultured with the target cell line as compared to parental Jurkat-NFAT-GFP cells. […] The signs +/−, +, 2+ etc. after the name of the cell lines indicate the relative degree of positivity on the Jurkat-NFAT-GFP assay as measured by the % GFP positive cells after culture of the SIR expressing Jurkat-NFAT-GFP cells with that cell line.

[2] = GFP expression upon 18 hour co-culture with RAJI cells, Table 10B
[3] = overnight co-culture with RAJI cells, Table 10C

Row | Molecule | Prt-L-APC (%) [1] | NFAT-GFP (%) (RAJI cells; [2]) | NFAT-GFP (%) (RAJI cells; [3])
1 | B1 | 8% | 2.48% | –
2 | B2 | 9% | 1.35% | –
3 | B3 | 7% | 0.9% | –
4 | B4 | 0% | 1.99% | –
5 | B5 | – | – | 71.81%
6 | B6 | – | – | 31.59%
